One series addresses T1, MG103-6 (uncultivated organism).
T1 chain: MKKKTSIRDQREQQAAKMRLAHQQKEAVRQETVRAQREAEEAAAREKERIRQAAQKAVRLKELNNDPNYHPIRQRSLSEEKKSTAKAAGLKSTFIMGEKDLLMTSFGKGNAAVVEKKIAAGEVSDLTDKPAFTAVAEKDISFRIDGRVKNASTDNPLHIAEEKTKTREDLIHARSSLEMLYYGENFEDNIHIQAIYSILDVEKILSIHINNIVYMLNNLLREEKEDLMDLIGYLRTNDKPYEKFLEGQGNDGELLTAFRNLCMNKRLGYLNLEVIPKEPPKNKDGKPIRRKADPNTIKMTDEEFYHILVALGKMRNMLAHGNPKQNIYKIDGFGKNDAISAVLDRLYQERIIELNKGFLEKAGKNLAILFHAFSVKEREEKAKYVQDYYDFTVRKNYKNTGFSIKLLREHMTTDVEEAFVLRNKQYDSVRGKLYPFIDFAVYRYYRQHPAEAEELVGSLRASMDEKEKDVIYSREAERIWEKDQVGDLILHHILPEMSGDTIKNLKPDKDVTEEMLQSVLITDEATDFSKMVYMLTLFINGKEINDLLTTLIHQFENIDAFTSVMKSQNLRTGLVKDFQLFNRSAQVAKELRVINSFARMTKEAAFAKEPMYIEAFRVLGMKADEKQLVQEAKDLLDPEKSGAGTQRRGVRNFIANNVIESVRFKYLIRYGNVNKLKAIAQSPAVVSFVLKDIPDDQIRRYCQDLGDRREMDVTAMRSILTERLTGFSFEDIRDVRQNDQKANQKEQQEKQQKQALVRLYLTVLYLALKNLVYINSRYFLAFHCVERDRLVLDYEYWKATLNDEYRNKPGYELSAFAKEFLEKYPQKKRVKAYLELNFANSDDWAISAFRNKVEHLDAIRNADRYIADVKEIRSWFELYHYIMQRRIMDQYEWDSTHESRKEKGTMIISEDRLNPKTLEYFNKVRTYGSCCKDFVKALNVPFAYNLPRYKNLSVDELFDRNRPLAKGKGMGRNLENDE
Kind of series: crRNA processing by RNAseq: 6 nt trimmed from 5' of repeat, 30 nt repeat, 21 and 26 nt spacers. On the procedure: (§1) RNA was extracted from PURExpress cell lysate expressions following the Quick-RNA™ Miniprep Kit (Zymo Research) and eluted in 30-50 μL of water. 5′ ends of the processed crRNA were mono-phosphorylated with 10 units of T4 Polynucleotide Kinase, 40 units of Murine RNase Inhibitor, and 1X of T4 DNA Ligase Buffer (NEB Inc.) in 25-50 μL reactions. Following a 30-minute incubation at 37° C., reactions were stopped with column purification using Monarch® RNA Cleanup Kit ([…]) (NEB Inc.). The total concentration of the transcripts were measured on a Nanodrop, Tapestation, and Qubit.
(§2) 100ng-1pg of total RNA from each sample were prepped for RNA sequencing using the NEBNext Small RNA Library Prep Set for Illumina (NEB Inc.). Amplicons between 150-300 bp were quantified by Tapestation and Qubit and pooled to a concentration of 4 nM. A concentration of […] was loaded into a MiSeq V3 kit and sequenced in a Miseq system (Illumina) for 176 total cycles. The RNAseq reads were used to identify the processed crRNA sequences. Illumina adapters were removed from all reads using fastp (see e.g., Bioinformatics 2018, 34 (17), i884-i890, which is incorporated by reference herein in its entirety). […]

The target in another series is T2, MG103-12 (uncultivated organism).
T2 chain: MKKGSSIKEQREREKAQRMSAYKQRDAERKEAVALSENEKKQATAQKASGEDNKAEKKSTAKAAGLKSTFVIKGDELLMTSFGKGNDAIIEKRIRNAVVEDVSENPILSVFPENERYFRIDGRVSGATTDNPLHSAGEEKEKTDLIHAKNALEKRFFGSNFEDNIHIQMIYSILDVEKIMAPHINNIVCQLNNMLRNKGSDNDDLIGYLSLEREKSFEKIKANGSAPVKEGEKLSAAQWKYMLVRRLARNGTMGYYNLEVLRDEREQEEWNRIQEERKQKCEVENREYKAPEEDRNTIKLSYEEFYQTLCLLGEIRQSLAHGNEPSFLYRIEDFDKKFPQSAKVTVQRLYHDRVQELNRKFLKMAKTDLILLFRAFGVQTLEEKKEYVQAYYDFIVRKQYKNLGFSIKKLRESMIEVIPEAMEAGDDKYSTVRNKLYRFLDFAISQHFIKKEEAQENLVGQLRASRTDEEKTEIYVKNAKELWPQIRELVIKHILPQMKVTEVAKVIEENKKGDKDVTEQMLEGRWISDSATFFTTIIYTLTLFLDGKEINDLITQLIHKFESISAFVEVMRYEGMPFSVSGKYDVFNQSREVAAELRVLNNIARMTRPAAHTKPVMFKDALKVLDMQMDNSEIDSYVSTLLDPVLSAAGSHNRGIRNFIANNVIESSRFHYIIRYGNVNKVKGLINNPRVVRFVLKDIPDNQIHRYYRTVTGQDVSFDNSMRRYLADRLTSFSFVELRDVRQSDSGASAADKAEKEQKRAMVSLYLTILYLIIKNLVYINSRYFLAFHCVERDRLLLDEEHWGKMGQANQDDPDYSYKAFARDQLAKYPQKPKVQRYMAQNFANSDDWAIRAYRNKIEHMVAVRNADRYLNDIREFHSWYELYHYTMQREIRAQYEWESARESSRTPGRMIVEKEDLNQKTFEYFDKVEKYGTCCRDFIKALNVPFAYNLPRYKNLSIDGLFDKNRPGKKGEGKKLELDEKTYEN
The series can be described thus: crRNA processing by RNAseq: 30 nt repeat, 21 nt spacer. On the procedure:
as §1, §2

Another series has as its target T3, MG105-1 (uncultivated organism).
T3 chain: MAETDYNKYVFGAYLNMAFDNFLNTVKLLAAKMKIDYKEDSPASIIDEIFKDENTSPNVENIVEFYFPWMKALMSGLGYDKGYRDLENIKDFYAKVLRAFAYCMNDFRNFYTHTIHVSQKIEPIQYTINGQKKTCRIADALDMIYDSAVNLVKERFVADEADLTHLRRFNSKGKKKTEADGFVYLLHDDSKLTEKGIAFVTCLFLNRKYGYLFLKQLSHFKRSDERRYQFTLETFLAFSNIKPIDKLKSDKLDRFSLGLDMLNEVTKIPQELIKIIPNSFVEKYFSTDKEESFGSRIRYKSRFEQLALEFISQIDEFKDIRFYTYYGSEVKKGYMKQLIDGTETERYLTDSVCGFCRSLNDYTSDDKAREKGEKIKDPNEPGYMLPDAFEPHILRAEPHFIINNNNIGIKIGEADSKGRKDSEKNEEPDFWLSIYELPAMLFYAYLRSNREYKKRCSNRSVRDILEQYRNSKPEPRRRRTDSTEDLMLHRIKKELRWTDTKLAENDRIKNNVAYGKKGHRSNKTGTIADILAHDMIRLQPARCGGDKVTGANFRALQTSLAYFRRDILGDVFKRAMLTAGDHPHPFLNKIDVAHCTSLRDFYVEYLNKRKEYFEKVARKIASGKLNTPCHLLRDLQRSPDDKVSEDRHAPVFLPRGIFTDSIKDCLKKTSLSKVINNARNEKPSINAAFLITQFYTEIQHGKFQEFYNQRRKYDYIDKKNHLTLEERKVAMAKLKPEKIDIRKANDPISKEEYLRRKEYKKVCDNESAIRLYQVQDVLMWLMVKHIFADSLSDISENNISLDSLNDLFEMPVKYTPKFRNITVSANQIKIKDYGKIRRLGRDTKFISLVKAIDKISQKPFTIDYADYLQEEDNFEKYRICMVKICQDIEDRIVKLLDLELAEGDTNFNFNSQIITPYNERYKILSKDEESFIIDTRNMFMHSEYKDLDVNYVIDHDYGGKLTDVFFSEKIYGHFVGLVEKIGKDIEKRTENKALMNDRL
The series can be described thus: crRNA processing: 10 nt trimmed 5' of spacer, 36 nt repeat retained; spacer 5' of repeat. On the procedure: as §1, §2

B1: 103-6_MA_30_REV array (ssRNA)
RNA: GGAACUACACCCUUACGAACUCGUAGGGGUCUGAAACCCGUCCAGCUCGACCAGGAUGGGAACAACGGAACUACACCCUUACGAACUCGUAGGGGUCUGAAACAGGCUAGGUGGAGGCUCAGUG
For the molecule B1, the binding result with MG103-6 is “binds”.

B2: 103-12_MA_30_FWD array (ssRNA)
RNA: GGAACUACACCCUUACCGAUUGGUAAGGGUCUGAAACCCGUCCAGCUCGACCAGGAUGGGAACAACGGAACUACACCCUUACCGAUUGGUAAGGGUCUGAAACAGGCUAGGUGGAGGCUCAGUG
As to B2, the binding result in the series with MG103-12 is “binds”.

B3: 105-1_MA_30_REV array (ssRNA)
RNA: GGUUGUAACAGCCUUUAGUUUGUAAGGUAAAAACAACCCGUCCAGCUCGACCAGGAUGGGAACAACGGUUGUAACAGCCUUUAGUUUGUAAGGUAAAAACAACAGGCUAGGUGGAGGCUCAGUG
Turning to B3, the binding result with MG105-1 is “binds”.

For the origin of these results see patent US20240352433, “ENZYMES WITH HEPN DOMAINS” (Metagenomi, Inc., published 2024).
